Results taken from PMC6462529.

How the values were obtained:
PGT151 = assay: D7324-capture ELISA; settings: PGT145-purified trimers; SOSIP.664 AUC-value printed 0.75
PG16 = assay: D7324-capture ELISA; settings: PGT145-purified trimers; SOSIP.664 AUC-value printed 0.55
PG9 = assay: D7324-capture ELISA; settings: PGT145-purified trimers; SOSIP.664 AUC-value printed 1.70
PGT121 = assay: D7324-capture ELISA; settings: PGT145-purified trimers; SOSIP.664 AUC-value printed 1.60
CH103 = assay: D7324-capture ELISA; settings: PGT145-purified trimers; SOSIP.664 AUC-value printed 1.34
2G12 = assay: D7324-capture ELISA; settings: PGT145-purified trimers; SOSIP.664 AUC-value printed 2.89
PGT145 = assay: D7324-capture ELISA; settings: PGT145-purified trimers; SOSIP.664 AUC-value printed 0.68
VRC26.09 = assay: D7324-capture ELISA; settings: PGT145-purified trimers; SOSIP.664 AUC-value printed 0.49
gl-PG9 = assay: D7324-capture ELISA; settings: PGT145-purified trimers; SOSIP.664 AUC-value printed 0.14
gl-PG16 = assay: D7324-capture ELISA; settings: PGT145-purified trimers; SOSIP.664 AUC-value printed 0.01
CH01 = assay: D7324-capture ELISA; settings: PGT145-purified trimers; SOSIP.664 AUC-value printed 0.32
F105 = assay: D7324-capture ELISA; settings: PGT145-purified trimers; SOSIP.664 AUC-value printed 0.12
gl-CH01 = assay: D7324-capture ELISA; settings: PGT145-purified trimers; SOSIP.664 AUC-value printed 0.14
[1] = biological target: HIV-1 LAI Env (parental LAI virus) (HIV-1 (isolate LAI)) (UniProt P03377)

Row | Substance | ratio to parent (PGT151) | ratio to parent (PG16) | ratio to parent (PG9) | ratio to parent (PGT121) | ratio to parent (CH103) | ratio to parent (2G12) | ratio to parent (PGT145) | ratio to parent (VRC26.09) | ratio to parent (gl-PG9) | ratio to parent (gl-PG16) | ratio to parent (CH01) | ratio to parent (F105) | ratio to parent (gl-CH01) | IC50 of neutralization of the parental LAI virus [1] [µg/mL]
1 | BG505 SOSIP.664-D7324 trimer E153C; R178C; G152E | 1 | 1.7 | 2 | 1.5 | 2.3 | 1 | 1 | 1.3 | 1.4 | 3.9 | 1.9 | 4.7 | 2.1 | –
2 | PG9 (antibody) | – | – | – | – | – | – | – | – | – | – | – | – | – | 2
